Reference: publication PMC7511310, “Ancestral sequence reconstruction produces thermally stable enzymes with mesophilic enzyme-like catalytic properties” (Scientific Reports, 2020)

How the values were obtained:
Test in all cases: A340 NADH formation, steady state, Michaelis-Menten fit
[1] = substrate: CC(C)[C@H](C(=O)O)[C@@H](O)C(=O)O; type: biochemical, Thermus thermophilus; conditions: 40 °C, 50 mM HEPES pH 8.0, 100 mM KCl, 5 mM MgCl2, 5 mM NAD+ fixed, 40.0 °C
Text: (§1) A340 NADH formation, steady state, Michaelis-Menten fit on T. thermophilus IPMDH

[2] = substrate: NC(=O)c1ccc[n+]([C@@H]2O[C@H](COP(=O)(O)OP(=O)(O)OC[C@H]3O[C@@H](n4cnc5c(N)ncnc54)[C@H](O)[C@@H]3O)[C@@H](O)[C@H]2O)c1; type: biochemical, Thermus thermophilus; conditions: 25 °C, 50 mM HEPES pH 8.0, 100 mM KCl, 5 mM MgCl2, 0.2 mM D-3-IPM fixed, 25.0 °C, varied: cofactor
Text: as §1

[3] = substrate: CC(C)[C@H](C(=O)O)[C@@H](O)C(=O)O; type: biochemical, Saccharomyces cerevisiae; conditions: 40 °C, 50 mM HEPES pH 8.0, 100 mM KCl, 5 mM MgCl2, 5 mM NAD+ fixed, 40.0 °C
Text: (§2) A340 NADH formation, steady state, Michaelis-Menten fit on S. cerevisiae IPMDH

[4] = substrate: NC(=O)c1ccc[n+]([C@@H]2O[C@H](COP(=O)(O)OP(=O)(O)OC[C@H]3O[C@@H](n4cnc5c(N)ncnc54)[C@H](O)[C@@H]3O)[C@@H](O)[C@H]2O)c1; type: biochemical, Saccharomyces cerevisiae; conditions: 25 °C, 50 mM HEPES pH 8.0, 100 mM KCl, 5 mM MgCl2, 0.2 mM D-3-IPM fixed, 25.0 °C, varied: cofactor
Text: as §2

[5] = substrate: CC(C)[C@H](C(=O)O)[C@@H](O)C(=O)O; type: biochemical, Bacillus subtilis; conditions: 40 °C, 50 mM HEPES pH 8.0, 100 mM KCl, 5 mM MgCl2, 5 mM NAD+ fixed, 40.0 °C
Text: (§3) A340 NADH formation, steady state, Michaelis-Menten fit on B. subtilis IPMDH

[6] = substrate: NC(=O)c1ccc[n+]([C@@H]2O[C@H](COP(=O)(O)OP(=O)(O)OC[C@H]3O[C@@H](n4cnc5c(N)ncnc54)[C@H](O)[C@@H]3O)[C@@H](O)[C@H]2O)c1; type: biochemical, Bacillus subtilis; conditions: 25 °C, 50 mM HEPES pH 8.0, 100 mM KCl, 5 mM MgCl2, 0.2 mM D-3-IPM fixed, 25.0 °C, varied: cofactor
Text: as §3

B1: T. thermophilus IPMDH (Thermus thermophilus HB8) (protein)
chain: MKVAVLPGDGIGPEVTEAALKVLRALDEAEGLGLAYEVFPFGGAAIDAFGEPFPEPTRKGVEEAEAVLLGSVGGPKWDGLPRKIRPETGLLSLRKSQDLFANLRPAKVFPGLERLSPLKEEIARGVDVLIVRELTGGIYFGEPRGMSEAEAWNTERYSKPEVERVARVAFEAARKRRKHVVSVDKANVLEVGEFWRKTVEEVGRGYPDVALEHQYVDAMAMHLVRSPARFDVVVTGNIFGDILSDLASVLPGSLGLLPSASLGRGTPVFEPVHGSAPDIAGKGIANPTAAILSAAMMLEHAFGLVELARKVEDAVAKALLETPPPDLGGSAGTEAFTATVLRHLA
notes: extant thermophilic wild type; homodimer
Question: For B1, which Km [1] is on record?
Answer: The Km was 2.3 ± 0.8 µM.

Question: What about the kcat [1] of the same protein?
Answer: Its kcat is 2.4 ± 0.1 s⁻¹.

Question: And the Km [2]?
Answer: The Km was 2.2 ± 0.3 µM.

Question: What about the kcat [2] of the same protein?
Answer: The kcat was 0.37 ± 0.01 s⁻¹.

B2: S. cerevisiae IPMDH (Saccharomyces cerevisiae S288C) (protein)
chain: MSAPKKIVVLPGDHVGQEITAEAIKVLKAISDVRSNVKFDFENHLIGGAAIDATGVPLPDEALEASKKADAVLLGAVGGPKWGTGSVRPEQGLLKIRKELQLYANLRPCNFASDSLLDLSPIKPQFAKGTDFVVVRELVGGIYFGKRKEDDGDGVAWDSEQYTVPEVQRITRMAAFMALQHEPPLPIWSLDKANVLASSRLWRKTVEETIKNEFPTLKVQHQLIDSAAMILVKNPTHLNGIIITSNMFGDIISDEASVIPGSLGLLPSASLASLPDKNTAFGLYEPCHGSAPDLPKNKVNPIATILSAAMMLKLSLNLPEEGKAIEDAVKKVLDAGIRTGDLGGSNSTTEVGDAVAEEVKKILA
notes: recombinant from E. coli Rosetta2 (DE3), pET21c(+) NdeI-BamHI, purified by HiTrap-Q, HiTrap-Butyl and ResourceQ; no tag mentioned
Question: For B2, which Km [3] is on record?
Answer: Its Km is 4.5 ± 0.7 µM.

Question: And the kcat [3]?
Answer: The kcat was 20 ± 1 s⁻¹.

Question: And the Km [4]?
Answer: The Km was 130 ± 10 µM.

Question: What about the kcat [4] of the same protein?
Answer: The kcat was 5.1 ± 0.1 s⁻¹.

B3: B. subtilis IPMDH (Bacillus subtilis subsp. subtilis str. 168) (protein)
chain: MKKRIALLPGDGIGPEVLESATDVLKSVAERFNHEFEFEYGLIGGAAIDEHHNPLPEETVAACKNADAILLGAVGGPKWDQNPSELRPEKGLLSIRKQLDLFANLRPVKVFESLSDASPLKKEYIDNVDFVIVRELTGGLYFGQPSKRYVNTEGEQEAVDTLFYKRTEIERVIREGFKMAAARKGKVTSVDKANVLESSRLWREVAEDVAQEFPDVKLEHMLVDNAAMQLIYAPNQFDVVVTENMFGDILSDEASMLTGSLGMLPSASLSSSGLHLFEPVHGSAPDIAGKGMANPFAAILSAAMLLRTSFGLEEEAKAVEDAVNKVLASGKRTRDLARSEEFSSTQAITEEVKAAIMSENTISNV
notes: as for B2
Question: With B3 as the protein, how does the Km [5] read?
Answer: Its Km is 0.78 ± 0.11 µM.

Question: And the kcat [5]?
Answer: The kcat was 9.4 ± 0.2 s⁻¹.

Question: And the Km [6]?
Answer: The Km was 110 ± 10 µM.

Question: What about the kcat [6] of the same protein?
Answer: Its kcat is 2.8 ± 0.1 s⁻¹.
